According to patent publication US20230212306A1 (Daiichi Sankyo, published 2023):

T1: mouse TLR7-Flag-His×6, expressed in Ba/F3 cells (mouse, UniProt P58681 27-1050)
T1 construct: cells permeabilised with 0.1% saponin; not shown: Flag-His×6 tag added to the C-terminus
T1 sequence: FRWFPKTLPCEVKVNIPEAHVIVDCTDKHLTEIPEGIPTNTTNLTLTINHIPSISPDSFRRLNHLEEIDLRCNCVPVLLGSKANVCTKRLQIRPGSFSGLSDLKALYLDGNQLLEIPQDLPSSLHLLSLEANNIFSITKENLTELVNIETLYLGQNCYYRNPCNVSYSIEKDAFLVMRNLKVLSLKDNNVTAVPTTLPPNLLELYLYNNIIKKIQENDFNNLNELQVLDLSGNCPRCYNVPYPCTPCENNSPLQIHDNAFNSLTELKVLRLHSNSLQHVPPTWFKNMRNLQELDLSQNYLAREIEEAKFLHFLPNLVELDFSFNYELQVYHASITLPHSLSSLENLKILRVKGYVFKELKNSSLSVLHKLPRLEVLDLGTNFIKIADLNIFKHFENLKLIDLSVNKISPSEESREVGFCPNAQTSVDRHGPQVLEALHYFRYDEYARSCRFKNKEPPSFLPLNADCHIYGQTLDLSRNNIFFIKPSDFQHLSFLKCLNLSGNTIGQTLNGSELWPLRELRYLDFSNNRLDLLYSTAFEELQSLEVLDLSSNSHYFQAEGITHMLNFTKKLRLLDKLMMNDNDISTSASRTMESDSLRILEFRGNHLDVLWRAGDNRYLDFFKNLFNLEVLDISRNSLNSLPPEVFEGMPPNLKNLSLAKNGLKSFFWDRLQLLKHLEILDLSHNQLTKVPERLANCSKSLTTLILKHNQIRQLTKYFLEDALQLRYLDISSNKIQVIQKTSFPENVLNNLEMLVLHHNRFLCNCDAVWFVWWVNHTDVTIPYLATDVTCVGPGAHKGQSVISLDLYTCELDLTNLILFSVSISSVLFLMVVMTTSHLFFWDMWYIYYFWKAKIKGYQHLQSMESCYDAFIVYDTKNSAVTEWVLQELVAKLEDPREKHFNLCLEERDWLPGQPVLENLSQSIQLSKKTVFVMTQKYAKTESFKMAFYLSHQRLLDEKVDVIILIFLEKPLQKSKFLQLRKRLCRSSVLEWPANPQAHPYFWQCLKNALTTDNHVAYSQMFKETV

T2: monkey TLR7-Flag-His×6, expressed in Ba/F3 cells (monkey, UniProt Q9NYK1 27-1049 (human entry))
T2 construct: cells permeabilised with 0.1% saponin; not shown: Flag-His×6 tag added to the C-terminus
T2 chain: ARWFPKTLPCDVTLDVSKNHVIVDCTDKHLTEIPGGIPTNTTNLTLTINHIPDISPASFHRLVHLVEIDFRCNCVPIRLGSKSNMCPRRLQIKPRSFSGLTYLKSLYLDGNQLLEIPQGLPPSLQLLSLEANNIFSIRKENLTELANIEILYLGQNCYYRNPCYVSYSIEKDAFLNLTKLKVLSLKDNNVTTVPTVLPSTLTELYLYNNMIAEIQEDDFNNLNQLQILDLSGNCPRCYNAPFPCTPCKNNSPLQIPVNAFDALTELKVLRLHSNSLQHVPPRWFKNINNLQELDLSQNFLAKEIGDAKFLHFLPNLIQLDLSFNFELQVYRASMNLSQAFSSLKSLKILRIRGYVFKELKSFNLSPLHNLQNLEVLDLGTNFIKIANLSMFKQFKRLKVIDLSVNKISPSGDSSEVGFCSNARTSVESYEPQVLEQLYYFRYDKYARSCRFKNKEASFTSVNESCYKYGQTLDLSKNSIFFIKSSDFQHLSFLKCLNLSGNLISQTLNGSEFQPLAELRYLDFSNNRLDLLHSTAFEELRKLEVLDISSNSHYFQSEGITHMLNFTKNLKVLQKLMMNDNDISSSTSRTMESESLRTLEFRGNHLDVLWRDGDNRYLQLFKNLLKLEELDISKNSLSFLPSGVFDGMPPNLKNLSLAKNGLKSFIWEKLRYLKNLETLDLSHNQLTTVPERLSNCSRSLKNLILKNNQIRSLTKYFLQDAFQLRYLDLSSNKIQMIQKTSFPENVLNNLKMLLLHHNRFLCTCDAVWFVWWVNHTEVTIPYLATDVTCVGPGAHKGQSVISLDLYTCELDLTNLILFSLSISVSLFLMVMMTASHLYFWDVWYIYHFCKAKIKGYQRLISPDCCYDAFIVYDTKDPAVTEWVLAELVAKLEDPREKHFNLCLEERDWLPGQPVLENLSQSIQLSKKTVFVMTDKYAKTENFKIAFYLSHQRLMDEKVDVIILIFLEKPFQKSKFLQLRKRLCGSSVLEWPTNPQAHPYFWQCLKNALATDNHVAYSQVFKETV


Key:
[1] = biological target: T1, mouse TLR7-Flag-His×6, expressed in …; experiment: flow cytometry (MFI) on saponin-permeabilised Ba/F3 cells expressing mouse TLR7-Flag-His×6
Description: (§1) The Ba/F3 cell line expressing human TLR7-Flag-His×6/human Unc93B1-HA×2 established above in 1)-1-1, the Ba/F3 cell line expressing mouse TLR7-Flag-His×6 established above in 2)-1-1, the Ba/F3 cell line expressing rat TLR7-Flag-His×6×2 established above in 2)-1-2, and the Ba/F3 cell line expressing monkey TLR7-Flag-His×6 established above in 2)-1-3 were subjected to membrane permeation with 0.1% Saponin and stained using AT01 antibody, NB7 antibody, and FAN2 antibody, and a secondary antibody, Goat anti-mouse IgG (H+L)-PE (eBioscience). The binding selectivity of each antibody was evaluated by comparing the average fluorescence intensity (MFI) based on flow cytometry analysis.

[2] = biological target: T2, monkey TLR7-Flag-His×6, expressed in …; experiment: flow cytometry (MFI) on saponin-permeabilised Ba/F3 cells expressing monkey TLR7-Flag-His×6
Description: as §1

| binding result [1] | binding result [2] | Binder |
| --- | --- | --- |
| no binding | binds | NB7 antibody (antibody, IgG1, V domains shown, also called mouse anti-human TLR7 antibody (NB7)) VH: DVQLQESGPGLVKPSQSLSLTCTVTGYSITSDYAWNWIRQFPGNKLEWMGHISYRGNTNYNPSLKSRISITRDTSKNQFFLQLNSVTTEDTATYYCASWNYYGYVDYAMDYWGQGTSVTVSS VL: DIQMTQTPSSLSASLGDRVTISCRASQDISNYLNWYQQKPDGTVKLLIYYTSRLHSGVPSRFSGSGSGTDYSLTINNLEQEDIATYFCQQGDTFPTFGGGTKLEIK |
| no binding | binds | AT01 antibody (antibody, IgG1, V domains shown, also called mouse anti-human TLR7 antibody (AT01)) VH: QVQLQQPGAELVKPGASVNLSCKASGYTFTNNWLHWVKQRPGRGLEWIGDIYPSNGRTNYNEQFKTKATLTVDKSSSTAYMQLSSLTSEDSAVYFCARERGYFDYWGQGTALTVSS VL: DIQMTQSPSSLSTSLGGKVTITCKASQDINKYIAWYQHKPGKGPRLLIHYTSTLQPGIPSRFSGSGSGRDYSFSISNLEPEDIATYYCLQYDYLLTFGAGTKLELK |
| no binding | binds | FAN2 antibody (antibody, IgG1, V domains shown, also called mouse anti-human TLR7 antibody (FAN2)) VH: QVQLKESGPGLVAPSQSLSITCTVSGFSLTGYGVNWVRQPPGKGLEWLGMIWGDGSTDYNSALKSRLSIRKDNSKSQVFLKMNSLQTDDTARYYCARDKGYDGYYYAMDYWGQGTSVTVSS VL: DIQMTQSPASLSASVGETVTITCRASENIYSYLAWYQQKQGKSPQLLVYDAKTLAEGVPSRFSGSGSGTQFSLKINSLQPEDFGSYYCQHHYGIPYTFGGGTKLEIK |
